Reference: patent US20260055184A1 (Hoffmann-La Roche, published 2026)

Legend:
[1] = molecular target: T1, CD3 binder CH2527 (VL_7-46(13)/VH_3-23(12)), as analyte MAK<CEA/CD3>rH; assay: SPR (Biacore), 25°C, analyte MAK<CEA/CD3>rH
T1 construct: the rest of the analyte MAK<CEA/CD3>rH (a CEA/CD3 molecule by its name) is not described

[2] = molecular target: T1, CD3 binder CH2527 …; assay: SPR (Biacore), 37°C, analyte MAK<CEA/CD3>rH
[3] = molecular target: T2, HER1 extracellular domain (human, UniProt P00533 25-645); assay: SPR (Biacore T100), HER1 extracellular domain amine-coupled on a CM5 chip, antibody as analyte, 37 °C, 1:1 Langmuir model
T2 construct: extracellular domain
Procedure: (§1) HER1 was immobilized on the surface of a CM5 biosensorchip using standard amine-coupling chemistry. The HER1 extracellular domain was injected in sodium acetate, pH 5.0 at 1 μg/ml. Reference control flow cells were treated in the same way but with vehicle buffer only. […] The association phase was 3 minutes and the dissociation time was 10 minutes. […] Kinetic rate constants and equilibrium dissociation constants were calculated by using the 1:1 Langmuir binding model within the Biaevaluation software.

[4] = molecular target: T2, HER1 extracellular domain; assay: SPR Biacore T100; HER1 extracellular domain amine-coupled on CM5, antibody injected at 3.125-50 nM, 1:1 Langmuir model
Procedure: as §1

| Binder | Kd [1] [nM] | koff [1] [s⁻¹] | kon [1] [M⁻¹ s⁻¹] | Kd [2] [nM] | koff [2] [s⁻¹] | kon [2] [M⁻¹ s⁻¹] | koff [3] [s⁻¹] | kon [3] [M⁻¹ s⁻¹] | Kd [4] [nM] |
| --- | --- | --- | --- | --- | --- | --- | --- | --- | --- |
| anti-idiotypic CH2527 binder 4.15.64 (scFv, From mouse hybridomas (immunisation with CH2527 Fab)) scFv: QIQLVQSGPELKKPGETVRISCKASGYTFTDYSIHWVKQAPGKCLKWMGWINTETGEPAYADDFKGRFAFSLETSASTAYLQINNLKNEDTATFFCAHPYDYDVLDYWGQGTSVTVSSGGGGSGGGGSGGGGSGGGGSDTVLTQSPASLGVSLGQRATISCRASKSVSTSNYSYIHWYQQKPGQPPKLLIKYVSYLESGVPARFSGSGSGTDFTLNIHPVEEEDAATYYCQHSREFPWTFGCGTKLEIK | 96 | 0.0025 | 26100 | 94 | 0.0135 | 144000 |  |  |  |
| HER1-binding IgG1 antibody GA201 (antibody, V domains shown, produced in 293-F cells; also called anti HER1 antibody GA201; GA201 parental unmasked antibody) VH: QVQLVQSGAEVKKPGSSVKVSCKASGFTFTDYKIHWVRQAPGQGLEWMGYFNPNSGYSTYAQKFQGRVTITADKSTSTAYMELSSLRSEDTAVYYCARLSPGGYYVMDAWGQGTTVTVSS VL: DIQMTQSPSSLSASVGDRVTITCRASQGINNYLNWYQQKPGKAPKRLIYNTNNLQTGVPSRFSGSGSGTEFTLTISSLQPEDFATYYCLQHNSFPTFGQGTKLEIKR |  |  |  |  |  |  | 0.00012 | 168000 | 1 |
| anti-idiotypic CH2527 binder 4.32.63 (scFv, From mouse hybridomas (immunisation with CH2527 Fab)) scFv: QVQLKESGPGLVAPSQSLSITCTVSGFSLTSYGVSWVRQPPGKCLEWLGIIWGDGSTNYHSALISRLSISKDNSKSQVFLKLNSLQTDDTATYYCAKGITTVVDDYYAMDYWGQGTSVTVSSGGGGSGGGGSGGGGSGGGGSDIQMTQSPASLSASVGETVTITCRASENIDSYLAWYQQKQGKSPQLLVYAATFLADDVPSRFSGSGSGTQYSLKINSLQSEDVARYYCQHYYSTPYTFGCGTKLEIK | 1 | 0.000105 | 196000 | 2 | 0.000652 | 346000 |  |  |  |
| 4.24.72 (antibody, V domains shown) VH: QIQLVQSGPELKKPGETVKISCKASGYTVTDYSMNWVKQAPGKCLKWMGWINTETGEPRYTDDFKGRFAFSLETSASTAYLQINNLKNEDSATYFCAREGDYDVFDYWGHGTTLKVSS VL: DIVLTQSPASLAVSLGQRATISCRASKSVSTSSYSYMHWYQQKPGQPPKLLIKYVSYLESGVPARFSGSGSGTDFTLNIHPVEEEDAATYYCQHSREFPYTFGCGTKLEIK | 14 | 0.00118 | 87200 | 29 | 0.00445 | 155000 |  |  |  |
